How the values were obtained:
[1] = biological target: Bunyamwera virus Gc glycoprotein (Bunyamwera virus) (UniProt P04505); assay: cryo-EM structure; electron cryo-tomography and sub-tomogram averaging of about 2,000 spikes on purified BUNV virions vitrified at pH 7.4; 3.0 nm resolution; three-fold symmetry seen without imposing it; validated by single particle averaging of spike side views
[2] = biological target: Bunyamwera virus Gn–Gc glycoprotein heterodimer (protomer of the membrane-bound glycoprotein spike) (Bunyamwera virus); assay: as above

“Bunyamwera virus Gc glycoprotein (from UniProt P04505 478-1433) (natural protein)” showed a stoichiometry N [1] of 3.

“Bunyamwera virus Gn–Gc glycoprotein heterodimer (protomer of the membrane-bound glycoprotein spike) (complex)” was tested, and the stoichiometry N [2] was 3.
